{"source": "paper PMC5296763", "about": "“Structural basis for redox sensitivity in Corynebacterium glutamicum diaminopimelate epimerase: an enzyme involved in L-lysine biosynthesis” (Scientific Reports, 2017)", "molecules": {"B1": {"name": "CgDapF (Corynebacterium glutamicum ATCC 13032) (protein)", "chain": "MNLTIPFAKGHATENDFIIIPDEDARLDLTPEMVVTLCDRRAGIGADGILRVVKAADVEGSTVDPSLWFMDYRNADGSLAEMCGNGVRLFAHWLYSRGLVDNTSFDIGTRAGVRHVDILQADQHSAQVRVDMGIPDVTGLSTCDINGQVFAGLGVDMGNPHLACVVPGLSASALADMELRAPTFDQEFFPHGVNVEIVTELEDDAVSMRVWERGVGETRSCGTGTVAAACAALADAGLGEGTVKVCVPGGEVEVQIFDDGSTLTGPSAIIALGEVQI"}, "B2": {"name": "Diaminopimelate epimerase (DapF) from Corynebacterium glutamicum (enzyme, UniProt Q8NP73 1-277, looked up)", "chain": "B1 chain", "modifications": "selenomethionine-substituted (SeMet derivative) in the crystals of the oxidized and reduced forms (5H2G, 5H2Y)", "notes": "Diaminopimelate epimerase (DapF, EC 5.1.1.7) of Corynebacterium glutamicum strain ATCC 13032, gene amplified from genomic DNA and cloned in pET30a; also called CgDapF; DAP epimerase; source: E. coli B834(DE3), purified (Ni-NTA, size-exclusion chromatography on Superdex 200); not shown: His tag (from the Ni-NTA purification)"}}, "key": {"CgDapF": {"target": "T1, CgDapF (Corynebacterium glutamicum, UniProt Q8NP73)", "T1 construct": "gene dapF", "experiment": "X-ray crystal structure, […] A", "type": "binding", "details": "crystallised with a 10 mM DAP isomer mixture (L,L, D,D, D,L), pH 9.0; only D,L-DAP density seen; active site"}, "purified protein": {"substrate": "N[C@@H](CCC[C@H](N)C(=O)O)C(=O)O", "experiment": "purified protein", "type": "biochemical, Corynebacterium glutamicum", "details": "0.1 M potassium phosphate, pH 8.0, room temperature, 3.45 uM enzyme, substrate named in the assay method"}, "[1]": {"target": "the molecule itself", "experiment": "SEC; size-exclusion chromatography under both the oxidized and the reduced conditions; data not shown"}}}
{"molecule": "N[C@H](CCC[C@H](N)C(=O)O)C(=O)O", "note": "[D,L-DAP]", "values": [{"measurement": "X-ray crystal structure, 2.6 A", "setting": "CgDapF", "value": "we determined the crystal structure of the protein in complex with the D,L-DAP product"}]}
{"molecule": "B1", "values": [{"measurement": "Km", "setting": "purified protein", "value": 1860, "unit": "µM"}, {"measurement": "kcat", "setting": "purified protein", "value": 58, "unit": "s⁻¹"}]}
{"molecule": "B2", "values": [{"measurement": "stoichiometry N", "setting": "[1]", "value": 2}]}
